Reference: patent publication US7691590B2, “Reducing myelin-mediated inhibition of axon regeneration” (Children's Medical Center Corporation, priority 2001, dated 2010)
“And” between values parts separate entries of the source, which are not always exact repeats. Identical values can stand only once.

T1: GST-NgR (extracellular domain of NgR) (Homo sapiens, UniProt Q9BZR6)
T1 construct: a GST fusion protein containing the entire extracellular domain of NgR (GST-NgR); made in house; OM-his made in COS-7 cells
T1 sequence (Q9BZR6 27-447 limits assumed): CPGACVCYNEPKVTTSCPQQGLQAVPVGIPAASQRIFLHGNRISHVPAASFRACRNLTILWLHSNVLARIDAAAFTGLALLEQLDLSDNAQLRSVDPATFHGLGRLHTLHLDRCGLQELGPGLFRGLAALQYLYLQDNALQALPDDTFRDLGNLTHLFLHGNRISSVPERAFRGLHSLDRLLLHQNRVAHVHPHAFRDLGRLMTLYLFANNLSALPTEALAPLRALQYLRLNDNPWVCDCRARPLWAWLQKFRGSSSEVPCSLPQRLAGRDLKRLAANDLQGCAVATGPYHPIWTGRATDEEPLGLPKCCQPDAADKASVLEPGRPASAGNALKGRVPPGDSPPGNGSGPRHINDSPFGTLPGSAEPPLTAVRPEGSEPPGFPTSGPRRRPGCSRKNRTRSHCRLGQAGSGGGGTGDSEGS

B1: Semaphorin 3A: control growth cone collapsing protein acting through neuropilin-1 and plexin receptors (protein, UniProt Q14563 21-771, looked up)
Semaphorin-3A: NYQNGKNNVPRLKLSYKEMLESNNVITFNGLANSSSYHTFLLDEERSRLYVGAKDHIFSFDLVNIKDFQKIVWPVSYTRRDECKWAGKDILKECANFIKVLKAYNQTHLYACGTGAFHPICTYIEIGHHPEDNIFKLENSHFENGRGKSPYDPKLLTASLLIDGELYSGTAADFMGRDFAIFRTLGHHHPIRTEQHDSRWLNDPKFISAHLISESDNPEDDKVYFFFRENAIDGEHSGKATHARIGQICKNDFGGHRSLVNKWTTFLKARLICSVPGPNGIDTHFDELQDVFLMNFKDPKNPVVYGVFTTSSNIFKGSAVCMYSMSDVRRVFLGPYAHRDGPNYQWVPYQGRVPYPRPGTCPSKTFGGFDSTKDLPDDVITFARSHPAMYNPVFPMNNRPIVIKTDVNYQFTQIVVDRVDAEDGQYDVMFIGTDVGTVLKVVSIPKETWYDLEEVLLEEMTVFREPTAISAMELSTKQQQLYIGSTAGVAQLPLHRCDIYGKACAECCLARDPYCAWDGSACSRYFPTAKRRTRRQDIRNGDPLTHCSDLHHDNHHGHSPEERIIYGVENSSTFLECSPKSQRALVYWQFQRRNEERKEEIRVDDHIIRTDQGLLLRSLQQKDSGNYLCHAVEHGFIQTLLKVTLEVIDTEHLEELLHKDDDGDGSKTKEMSNSMTPSQKVWYRDFMQLINHPNLNTMDEFCEQVWKRDRKQRRQRPGHTPGNSNKWKHLQENKKGRNRRTHEFERAPRSV
B2: OMgp: oligodendrocyte-myelin glycoprotein, GPI-anchored CNS myelin protein (protein, UniProt P23515 25-417, looked up)
Oligodendrocyte-myelin …: ICPLQCICTERHRHVDCSGRNLSTLPSGLQENIIHLNLSYNHFTDLHNQLTQYTNLRTLDISNNRLESLPAHLPRSLWNMSAANNNIKLLDKSDTAYQWNLKYLDVSKNMLEKVVLIKNTLRSLEVLNLSSNKLWTVPTNMPSKLHIVDLSNNSLTQILPGTLINLTNLTHLYLHNNKFTFIPDQSFDQLFQLQEITLYNNRWSCDHKQNITYLLKWMMETKAHVIGTPCSTQISSLKEHNMYPTPSGFTSSLFTVSGMQTVDTINSLSVVTQPKVTKIPKQYRTKETTFGATLSKDTTFTSTDKAFVPYPEDTSTETINSHEAAAATLTIHLQDGMVTNTSLTSSTKSSPTPMTLSITSGMPNNFSEMPQQSTTLNLWREETTTNVKTPLPS
B3: AP-66: alkaline phosphatase fusion protein containing the 66 amino acid extracellular domain of Nogo-A (protein)
chain: RIYKGVIQAIQKSDEGHPFRAYLESEVAISEELVQKYSNSALGHVNCTIKELRRLFLVDDLVDSLK
modifications: also: fused to alkaline phosphatase
notes: alkaline phosphatase fusion protein containing the 66 amino acid extracellular domain of Nogo-A
B4: OM-his: purified recombinant polyhistidine-tagged mouse OMgp protein (amino acids 23-392) expressed in COS-7 cells (protein)
chain: LCICPLQCTCTERHRHVDCSGRNLTTLPPGLQENIIHLNLSYNHFTDLHNQLTPYTNLRTLDISNNRLESLPAQLPRSLWNMSAANNNIKLLDKSDTAYQWNLKYLDVSKNMLEKVVLIKNTLRSLEVLNLSSNKLWTVPTNMPSKLHIVDLSNNSLTQILPGTLINLTNLTHLYLHNNKFTFIPEQSFDQLLQLQEITLHNNRWSCDHKQNITYLLKWVMETKAHVIGTPCSKQVSSLKEQSMYPTPPGFTSSLFTMSEMQTVDTINSLSMVTQPKVTKTPKQYRGKETTFGVTLSKDTTFSSTDRAVVAYPEDTPTEMTNSHEAAAATLTIHLQDGMSSNASLTSATKSPPSPVTLSIARGMPNNFSE
modifications: left off: small tags and cut ends
notes: purified recombinant polyhistidine-tagged mouse OMgp protein (amino acids 23-392) expressed in COS-7 cells

Columns and labels:
[1] = system: growth cones of E13 chick DRG neurons; assay: Growth cone collapse assay with E13 chick DRG explants; type: cell-based; conditions: for growth cone collapsing activity after PI-PLC treatment of the neurons: PI-PLC pre-incubation; for EC50: E13 chick DRG growth cones, read-out: effective concentration for half-maximal response (EC50), growth cone collapse
Excerpt: OMgp is a Physiological Nogo Receptor Ligand and Inhibitor of Neurite Outgrowth. To examine whether any GPI-linked proteins in CNS myelin may act as inhibitors of neurite outgrowth, we treated purified bovine white matter myelin with phosphatidylinositol-specific phospholipase C (PI-PLC) and examined the released proteins for their ability to alter growth cone morphology in a growth cone collapse assay using embryonic day 13 chick dorsal root ganglia (E13 DRG)^6,9,10. […] Since the size of this band was similar to that of a previously identified CNS myelin protein OMgp^11,12, we used antibodies specific for OMgp to detect enrichment of cleaved OMgp in the PI-PLC supernatants by Western blot. […] Next, we examined whether purified recombinant OMgp protein was able to act as an inhibitor of neurite outgrowth in two well-established in vitro assays, the growth cone collapse^6,9,13 and the neurite outgrowth assays^3-7,9.
Growth Cone Collapse and Neurite Outgrowth Assays. Chick E13 DRG and E7 retina were isolated and cultured as described previously^9,10. DRG explants cultured overnight were used for growth cone collapse assays. To assess the effects of PI-PLC treatment, cultures were pre-incubated with 2 U/ml PI-PLC for 30 min prior to treatment with individual test proteins for an additional 30 min. To express NgR in E7 retinal ganglion neurons, we infected the explants with recombinant HSV for 24 hr. After incubation with each test protein for 30 min, retinal explants were fixed in 4% paraformaldehyde and 15% sucrose. Infection of HSV-LacZ was detected by a standard b-galatosidase staining protocol^20. FLAG-NgR expression was detected by incubating paraformaldehyde-fixed cultures with M2 anti-FLAG antibody (Sigma). Bound antibody was detected by incubation with AP-conjugated […] IgG second antibody and reaction with NBT and BCIP (Vector labs). Growth cone collapse was quantified only in those positively stained for b-galatosidase or immunoreactive for the FLAG epitope.

[2] = system: chick E7 retinal ganglion neurons (RGN) expressing human NgR; assay: Growth cone collapse in E7 retinal ganglion neurons expressing FLAG-NgR (HSV infection); type: cell-based; conditions: E7 RGN infected with HSV FLAG-NgR
Excerpt: To assess whether NgR is capable of mediating OMgp-induced inhibitory activity on neurite outgrowth, we next took a gain-of-function approach to examine whether expression of NgR was able to confer OMgp-responsiveness to otherwise insensitive neurons. It has been shown previously that chick E7 retinal ganglion neurons (RGN) are insensitive to Nogo-66, but that introduction of exogenous NgR in these neurons rendered their growth cones to be responsive to Nogo-66^9. Using the same strategy, we made a recombinant herpes simplex virus (HSV) that drives expression of a FLAG-tagged full-length human NgR (FLAG-NgR) in infected neurons. Upon infection, 80% of the E7 RGNs expressed the FLAG-NgR protein as assessed by immunocytochemistry with an anti-FLAG antibody. […] Furthermore, the growth cones of NgR-expressing axons also become collapsible by OMgp.
Growth Cone Collapse and Neurite Outgrowth Assays. […] Infection of HSV-LacZ was detected by a standard b-galatosidase staining protocol^20. FLAG-NgR expression was detected by incubating paraformaldehyde-fixed cultures with M2 anti-FLAG antibody (Sigma). Bound antibody was detected by incubation with AP-conjugated […] IgG second antibody and reaction with NBT and BCIP (Vector labs). Growth cone collapse was quantified only in those positively stained for b-galatosidase or immunoreactive for the FLAG epitope.

[3] = biological target: T1, GST-NgR (extracellular domain of NgR); assay: Co-precipitation with GST-NgR on glutathione-Agarose beads; type: binding; conditions: for competition for binding to NgR: cell surface binding and co-precipitation assay
Method: To investigate the mechanisms by which OMgp inhibits neurite outgrowth, we used an expression cloning strategy^9,13,16 to identify cell surface OMgp-binding proteins. […] From pools of an adult human brain cDNA expression library, we isolated two cDNAs that encoded OMgp-binding proteins. […] We then established a CHO cell line stably expressing the NgR and determined the binding affinity of expressed NgR for AP-OM as 5 nM, similar to what had been determined for Nogo-66 (7 nM, ref. 9). […] We next performed co-precipitation experiments by incubating GST or a GST fusion protein containing the entire extracellular domain of NgR (GST-NgR) with OM-his alone or in the presence of AP or AP-66 protein. […] We next determined which domain(s) of OMgp was responsible for binding to NgR. Like NgR, OMgp is also a GPI-linked protein containing a leucine-rich repeat (LRR) domain. […] In addition, the C-terminal domain with serine-threonine repeats (AP-S/T) alone was also able to bind, though less strongly, to NgR expressing cells.
In co-precipitation experiments, 2 mg GST or GST-NgR were first immobilized to glutathione-Agarose beads and the beads were further incubated with or without 1 mg OM-his in the presence of 2 mg of AP or AP-66 at 4° C. for 2 hr. After extensive washing, the bound proteins were resolved with SDS-PAGE and detected by Western blotting.

[4] = system: cerebellar granule neurons (CGN); assay: Neurite outgrowth assay with cerebellar granule neurons; type: cell-based; conditions: P7-9 rat CGN
Excerpt: To deplete OMgp, myelin was first solublized with 1% octylglucoside and the resultant extract was passed twice through columns with PNA-Agarose (Vector Laboratories) or control Agarose beads as described previously^12. The OMgp-enriched fraction was obtained by eluting the PNA-Agarose column with buffer containing 0.5 M D-galactose. As a significant portion of OMgp co-fractionated with Nogo-A in anion exchange columns^12, we enriched MAG or Nogo-A from myelin by applying the flow-through fractions from the PNA-Agarose columns onto a Q-Sepharose (Sigma) column^15. The column was then eluted stepwise with equal amount of buffers containing 0.15 M (MAG-enriched), 0.45 M (Nogo-A enriched), or 1.0 M NaCl^15. Aliquots of individual fractions were tested for their inhibitory activity in the neurite outgrowth assay as described previously^15,16,21.
Neurite outgrowth assays were performed as described previously^15,21. Briefly, P7-9 rat CGNs were dissected and then plated at a density of 1×10^5 cells per well. The cells were cultured for 24 hr prior to fixation with 4% paraformaldehyde and staining with a neuronal specific anti-b-tubulin antibody (TuJ-1, Covance). Quantification of neurite length and statistical analysis were performed as described previously^22.

Molecule	growth cone collapsing activity after PI-PLC treatment of the neurons ([1]; E13 chick DRG)	growth cone collapse response in NgR-expressing neurons [2]	competition for binding to NgR [3]	EC50 [1]	direct binding to GST-NgR ([3]; co-precipitation, control GST did not bind)	growth cone collapsing activity ([1]; E13 chick DRG)	inhibition of neurite outgrowth [4]
B1	not affected	–	–	–	–	–	–
B2	abolished	collapsible	–	–	–	–	–
B3	–	–	competed for binding to NgR	2.3 nM	–	–	–
B4	–	–	competed for binding to NgR	~1.5 nM and 1.5 nM	bound	induced the collapse of growth cones	inhibited neurite outgrowth
